Key:
[1] = target: RNA polymerase core enzyme;chimera sigma32-38 (E. coli;E. coli) (UniProt P0A7Z4+P0A8V2+P0A8T7+P0A800+P0AGB3); assay: fluorescence polarization; settings: apparent Kd; FP: 10 mM Tris-HCl pH 7.7, 100 mM NaCl, 1 mM DTT, 1% glycerol, 0.025% Tween-20, 5 nM DNA, 10-320 nM holoenzyme, room temperature, 5 min; stopped-flow: 10 mM …
[2] = target: RNA polymerase core enzyme;chimera sigma32-28 (E. coli;E. coli) (UniProt P0A7Z4+P0A8V2+P0A8T7+P0A800+P0AGB3); assay: fluorescence polarization; settings: apparent Kd; FP: 10 mM Tris-HCl pH 7.7, 100 mM NaCl, 1 mM DTT, 1% glycerol, 0.025% Tween-20, 5 nM DNA, 10-320 nM holoenzyme, room temperature, 5 min; stopped-flow: 10 mM …
[3] = target: T1, β′ subunit of E. coli RNAP (E. coli, UniProt P0A8T7 1-1407); assay: cryo-EM structure; σ32-RPo: RNAP core enzyme, σ32 and dnaKp1 promoter scaffold mixed at 1:4:1.2 molar ratios, 4 °C overnight, purified on Superdex 200; 20 mM Tris-HCl pH 8.0, 0.1 M NaCl, 1% glycerol, 1 mM DTT; promoter DNA present; settings: both partners purified
T1 construct: RNA polymerase subunit beta' (RpoC), E. coli; stood in the assay as a subunit of the RNAP core enzyme; A subunit of m2; also called RNAP-β′; RpoC; source: E. coli BL21(DE3), co-expressed from pET28a-rpoA-rpoB-rpoC-rpoZ, purified as part of the RNAP core enzyme

[4] = target: T2, β subunit of E. coli RNAP (E. coli, UniProt P0A8V2 2-1342); assay: as above; settings: both partners purified
T2 construct: RNA polymerase subunit beta (RpoB), E. coli; stood in the assay as a subunit of the RNAP core enzyme; A subunit of m2; also called RpoB; bears the β-flap tip helix (βFTH); source: E. coli BL21(DE3), co-expressed from pET28a-rpoA-rpoB-rpoC-rpoZ, purified as part of the RNAP core enzyme

[5] = target: RNA polymerase core enzyme;sigma32 R268A (E. coli;E. coli, UniProt P0A7Z4;P0A8V2;P0A8T7;P0A800;P0AGB3 1-329;1-1342;1-1407;1-91;1-284, |R268A); assay: fluorescence polarization; apparent Kd; FP: 10 mM Tris-HCl pH 7.7, 100 mM NaCl, 1 mM DTT, 1% glycerol, 0.025% Tween-20, 5 nM DNA, 10-320 nM holoenzyme, room temperature, 5 min; stopped-flow: 10 mM Tris-HCl pH 7.7, 20 mM NaCl, 10 mM MgCl2, 1 mM DTT; settings: protein: recombinant;recombinant; tags: ;His tag (pET28a, Ni-NTA); chain copies: 2;1;1;1;1; blunt
[6] = target: RNA polymerase core enzyme;sigma32 (RpoH) wild type (E. coli;E. coli, UniProt P0A7Z4;P0A8V2;P0A8T7;P0A800;P0AGB3 1-329;1-1342;1-1407;1-91;1-284, |); assay: as above; settings: protein: recombinant;recombinant, tags: ;His tag (pET28a, Ni-NTA), chain copies: 2;1;1;1;1
[7] = target: RNA polymerase core enzyme;sigma32 E265A (E. coli;E. coli, UniProt P0A7Z4;P0A8V2;P0A8T7;P0A800;P0AGB3 1-329;1-1342;1-1407;1-91;1-284, |E265A); assay: as above; settings: protein: recombinant;recombinant; tags: ;His tag (pET28a, Ni-NTA); chain copies: 2;1;1;1;1; blunt
[8] = target: RNA polymerase core enzyme;sigma32 L253A (E. coli;E. coli, UniProt P0A7Z4;P0A8V2;P0A8T7;P0A800;P0AGB3 1-329;1-1342;1-1407;1-91;1-284, |L253A); assay: as above; settings: protein: recombinant;recombinant; tags: ;His tag (pET28a, Ni-NTA); chain copies: 2;1;1;1;1; blunt
[9] = target: RNA polymerase core enzyme;sigma32 R266A (E. coli;E. coli, UniProt P0A7Z4;P0A8V2;P0A8T7;P0A800;P0AGB3 1-329;1-1342;1-1407;1-91;1-284, |R266A); assay: as above; settings: protein: recombinant;recombinant; tags: ;His tag (pET28a, Ni-NTA); chain copies: 2;1;1;1;1; blunt

## CCTTGAAGACGTGGTTTACGACCCCATTTAGTAG / GGGGTCGTAAACCACGTCTTCAAGG [long promoter DNA, -35 to -10 bubble]
[1]
  Kd: 8.34 nM
[2]
  Kd: 9.22 nM

B1: E. coli σ^32 (natural protein)
chain: MTDKMQSLALAPVGNLDSYIRAANAWPMLSADEERALAEKLHYHGDLEAAKTLILSHLRFVVHIARNYAGYGLPQADLIQEGNIGLMKAVRRFNPEVGVRLVSFAVHWIKAEIHEYVLRNWRIVKVATTKAQRKLFFNLRKTKQRLGWFNQDEVEMVARELGVTSKDVREMESRMAAQDMTFDLSSDDDSDSQPMAPVLYLQDKSSNFADGIEDDNWEEQAANRLTDAMQGLDERSQDIIRARWLDEDNKSTLQELADRYGVSAERVRQLEKNAMKKLRAAIEA
notes: RNA polymerase sigma factor σ32 (RpoH), E. coli; the N-terminus was not modelled in the structure; the tag and its end are not described; also called sigma 32; RpoH; source: E. coli BL21(DE3), plasmid pET28a-rpoH, purified (Ni-NTA, HiTrap Heparin)
[3]
  binding result: binds
[4]
  binding result: binds

B2: short -35 element DNA (dsDNA)
DNA 1: CCTTGAAGACGTGG
DNA 2: CCACGTCTTCAAGG
[5]
  Kd: 46.7 nM
[6]; blunt
  Kd: 28.4 nM
[7]
  Kd: 45.9 nM
[8]
  Kd: 38.8 nM
[9]
  Kd: 54.9 nM

B3: long promoter DNA, -35 to -10 bubble (mixed)
DNA 1: CCTTGAAGACGTGGTTTACGACCCCATTTAGTAG
DNA 2: GGGGTCGTAAACCACGTCTTCAAGG
[6]; 25 bp duplex, 3' overhang 9 nt on S5 (fork-junction type)
  Kd: 14.9 nM

Source: article PMC10216364, “Structural Insight into the Mechanism of σ32-Mediated Transcription Initiation of Bacterial RNA Polymerase” (Biomolecules, 2023)
